Measured values from US20150148520A1 (INDIANA UNIVERSITY RESEARCH AND TECHNOLOGY, published 2015).
Bridges are numbered along the chain shown (N, C = ends). Roman numbers before positions name the chains, in order. Where no end group is shown, it is not given here. [ ]: non-standard residue; d: D form. Phe(4-NH2) = Nc1ccc(C[C@H](N)C(=O)O)cc1

How the values were obtained:
[1] = target: T1, human IGF-1 receptor (human, UniProt P08069 31-1367); assay: SPA competition, [125I]-IGF-1, IGF-1R membranes
T1 construct: whole, on cells; Phosphorylation assay: receptor transfected HEK293 cells; also called IGF-1
Experimental: (§1) Non-specifically bound (NSB) radioactivity was measured in the wells with a four-fold concentration excess of “cold” native ligand than the highest concentration in test samples. Total bound radioactivity was detected in the wells with no competitor. Percent specific binding was calculated as following: % Specific Binding=(Bound-NSB/Total bound-NSB)×100. IC50 values were determined by using Origin software (OriginLab, Northampton, Mass.).

[2] = target: T1, human IGF-1 receptor; assay: cell-based or functional assay
[3] = target: T2, human insulin receptor (human, UniProt P06213 28-1382); assay: cell-based or functional assay
[4] = target: T2, human insulin receptor; assay: SPA competition, [125I]-insulin, IR membranes
Experimental: as §1

Row | Binder | activity (0.55 nM) [1] [%] | % IGF [2] [%] | further results
1 | IGF-1 A: B (D10Y16L17) DPI A-COOH (ligand, disulfide I:6-I:11, I:20-II:18, I:7-II:6; ends not checked) chain 1: GIVDECCFRSCDLRRLEMYCA-OH chain 2: GPETLCGADLVDALYLVCGDRGFY-NH2 | 8.1 | 112 | % Insulin [3]: 1580%
2 | IGF-1 A: B (E10Y16L17)-E31E32 B-COOH (ligand, disulfide I:6-I:11, I:20-II:18, I:7-II:6; ends not checked) chain 1: GIVDECCFRSCDLRRLEMYCA-NH2 chain 2: GPETLCGAELVDALYLVCGDRGFYFNKPTEE-OH | 3.1 | – | –
3 | IGF-1 A (H8 A9 N21): B(H5D10Y16L17) DPI A-COOH (ligand, disulfide I:6-I:11, I:20-II:18, I:7-II:6; ends not checked) chain 1: GIVDECCHASCDLRRLEMYCN-OH chain 2: GPEHLCGADLVDALYLVCGDRGFY-NH2 | 13.6 | 181 | –
4 | IGF-1 A: B (H5D10Y16L17) DPI (ligand, disulfide I:6-I:11, I:20-II:18, I:7-II:6; ends not checked) chain 1: GIVDECCFRSCDLRRLEMYCA-NH2 chain 2: GPEHLCGADLVDALYLVCGDRGFY-NH2 | 11.8 | 7.1 | –
5 | IGF-1 A (H8 A9 N21): B (H5D10Y16L17 A22) DPI A-COOH (ligand, not fully specified (C-terminus); ends and bridges not checked) chain 1: GIVDECCHASCDLRRLEMYCN-OH chain 2: GPEHLCGADLVDALYLVCGDAGFY | 2.4 | 7.7 | % IGF-1 (in test) [1]: 2.3%; IC50 [1]: 22.8 nM
6 | IGF1 A:B(Y^B16L^B17)(p-NH2-F)^A19amide (ligand, disulfide (positions not given here); not fully specified (bridges); also: C-terminal amide, chain not given here) chain 1: GIVDECCFRSCDLRRLEM[Phe(4-NH2)]CA chain 2: GPETLCGAELVDALYLVCGDRGFYFNKPT-NH2 | – | – | IC50 [4]: 1.08 nM
7 | IGF-1 A: IGF-1 B (1-8)-In (9-17)-IGF-1 B (18-30) (ligand, disulfide I:6-I:11, I:20-II:18, I:7-II:6; ends not checked) chain 1: GIVDECCFRSCDLRRLEMYCA-NH2 chain 2: GPETLCGSHLVEALYLVCGDRGFYFNKPT-NH2 | 0.4 | – | –
8 | IGF-1 A: B (E10Y16L17) DPI (ligand, disulfide I:6-I:11, I:20-II:18, I:7-II:6; not fully specified) A chain: GIVDECCFRSCDLRRLEMYCA-NH2 B chain: GPETLCGAELVDALYLVCGDRGFY-NH2 | 2.4 | – | –
9 | IGF-1 A: In (1-17)-IGF-1 B (18-30) (ligand, disulfide I:6-I:11, I:20-II:19, I:7-II:7; ends not checked) chain 1: GIVDECCFRSCDLRRLEMYCA-NH2 chain 2: FVNQHLCGSHLVEALYLVCGDRGFYFNKPT-NH2 | 0.9 | – | –
10 | IGF-1 A: In B (1-5)-IGF-1 B (YL) (6-30) (ligand, disulfide I:6-I:11, I:20-II:19, I:7-II:7; not fully specified) A chain: GIVDECCFRSCDLRRLEMYCA-NH2 B chain: FVNQHLCGAELVDALYLVCGDRGFYFNKPT-NH2 | 2 | – | –
